According to patent publication US6673354B2, “Compositions and methods for treating papillomavirus-infected cells” (priority 1998, dated 2004):

Tests used:
[1] = biological target: T1, EE-EIC (epitope tagged carboxy terminal domain of HPV16 E1) (human papillomavirus type 16, UniProt P03114 424-649); experiment: in vitro E1-E2 competition binding assay with EE-EIC, 10-40 µM peptide, FIG. 14
T1 construct: range 424-649; limits uncertain; also called HPV-16 EE-EIC; EE-E1C
T1 sequence: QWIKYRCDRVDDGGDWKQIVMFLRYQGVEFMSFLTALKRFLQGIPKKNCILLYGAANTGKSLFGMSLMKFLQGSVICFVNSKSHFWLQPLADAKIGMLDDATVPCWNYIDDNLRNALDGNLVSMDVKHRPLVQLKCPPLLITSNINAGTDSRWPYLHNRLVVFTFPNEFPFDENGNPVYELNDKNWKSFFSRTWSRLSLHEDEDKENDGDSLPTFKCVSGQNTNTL

[2] = biological target: T2, epitope tagged full length HPV16 E1 (EE16-E1) (human papillomavirus type 16, UniProt P03114 1-649); experiment: inhibition of HPV16 E1-E2 co-immunoprecipitation by peptide; competitor HPV16 E2
T2 construct: range 1-649; also called EE-E1; HPV16 EE-E1
T2 sequence: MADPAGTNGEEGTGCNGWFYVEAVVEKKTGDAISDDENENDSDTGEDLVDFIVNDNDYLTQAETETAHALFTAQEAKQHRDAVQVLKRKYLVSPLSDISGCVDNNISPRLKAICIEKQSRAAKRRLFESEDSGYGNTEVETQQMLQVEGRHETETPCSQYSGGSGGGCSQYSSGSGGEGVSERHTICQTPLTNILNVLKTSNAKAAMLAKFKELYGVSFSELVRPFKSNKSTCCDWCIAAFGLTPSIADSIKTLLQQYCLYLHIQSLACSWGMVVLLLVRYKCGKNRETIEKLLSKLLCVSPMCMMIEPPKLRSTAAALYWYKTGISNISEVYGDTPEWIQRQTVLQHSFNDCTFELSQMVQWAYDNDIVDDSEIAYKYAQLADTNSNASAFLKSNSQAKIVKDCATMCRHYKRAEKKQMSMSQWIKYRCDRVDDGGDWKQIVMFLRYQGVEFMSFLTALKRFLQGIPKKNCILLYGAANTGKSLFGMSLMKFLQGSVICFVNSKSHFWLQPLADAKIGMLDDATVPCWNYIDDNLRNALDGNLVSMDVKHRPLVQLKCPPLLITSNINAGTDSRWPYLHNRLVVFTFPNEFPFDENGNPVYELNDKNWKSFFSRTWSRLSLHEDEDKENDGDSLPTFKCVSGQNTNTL

[3] = biological target: T3, HPV11 EE-E1 (epitope tagged HPV11 E1) (human papillomavirus type 11, UniProt P04014 1-649); experiment: co-immunoprecipitation with anti-EE antibody, Western blot for E2
T3 sequence: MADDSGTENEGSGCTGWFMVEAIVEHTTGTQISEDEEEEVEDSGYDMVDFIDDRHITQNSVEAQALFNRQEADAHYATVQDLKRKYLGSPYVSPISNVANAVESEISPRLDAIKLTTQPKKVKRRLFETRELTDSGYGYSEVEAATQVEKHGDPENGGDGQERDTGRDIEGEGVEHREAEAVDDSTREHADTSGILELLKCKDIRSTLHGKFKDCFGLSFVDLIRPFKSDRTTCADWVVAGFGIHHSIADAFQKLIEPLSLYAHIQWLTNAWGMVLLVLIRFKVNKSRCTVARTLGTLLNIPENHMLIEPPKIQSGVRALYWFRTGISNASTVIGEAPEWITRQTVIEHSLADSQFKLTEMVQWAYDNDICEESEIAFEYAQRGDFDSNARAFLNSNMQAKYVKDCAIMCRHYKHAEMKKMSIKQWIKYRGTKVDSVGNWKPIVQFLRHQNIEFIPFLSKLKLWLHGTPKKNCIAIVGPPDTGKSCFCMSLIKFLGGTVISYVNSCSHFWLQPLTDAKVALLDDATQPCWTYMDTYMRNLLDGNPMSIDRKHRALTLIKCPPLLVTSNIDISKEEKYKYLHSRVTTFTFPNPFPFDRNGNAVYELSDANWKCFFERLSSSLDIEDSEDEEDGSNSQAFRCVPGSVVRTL

Binder | IC50 [2] [µM] | other results
ERQIKIWFQNRRMKWKKGGWKHMRLECAIYYKAR (also called Antennapedia fusion peptide) [Ant-WP (Drosophila Antennapedia aa 42-58, Gly-Gly spacer, WP15)] |  | binding result [1]: binds
WKHMRLECAIYYKAR (also called 15-mer; wild-type peptide) [E2N-WP15 (peptide of HPV16 E2 residues 33-47)] | 7.5 | 
HIDYWKHMRLECAIYYKAREMGF (also called 23-mer) [E2N-WP23 (peptide of HPV16 E2 amino acids 29-51)] | 5 | 
HPV16 E2 E39A mutant (other, also called E39A replication defective HPV16 E2 mutant) METLCQRLNVCQDKILTHYENDSTDLRDHIDYWKHMRLACAIYYKAREMGFKHINHQVVPTLAVSKNKALQAIELQLTLETIYNSQYSNEKWTLQDVSLEVYLTAPTGCIKKHGYTVEVQFDGDICNTMHYTNWTHIYICEEASVTVVEGQVDYYGLYYVHEGIRTYFVQFKDDAEKYSKNKVWEVHAGGQVILCPTSVFSSNEVSSPEIIRQHLANHPAATHTKAVALGTEETQTTIQRPRSEPDTGNPCHTTKLLHRDSVDSAPILTAFNSSHKGRINCNSNTTPIVHLKGDANTLKCLRYRFKKHCTLYTAVSSTWHWTGHNVKHKSAIVTLTYDSEWQRDQFLSQVKIPKTITVSTGFMSI |  | binding result [3]: no binding
